The compounds below were run on C[C@H](N)c1ccccc1 (assay: purified protein). Conditions: 20 mM pyruvate, 2 mM PLP, 50 mM HEPES pH 8.0, 30 °C, (S)-MBA 0-5 mM.
Assay type: biochemical, Pseudomonas putida

In order of rising Km:
1. TA_5182 (Pseudomonas putida KT2440; G119N)  347 ± 24 µM
2. TA_2799 (Pseudomonas putida KT2440; L322F)  1068 ± 566 µM
3. TA_5182 (Pseudomonas putida KT2440)  1089 ± 117 µM
4. TA_2799 (Pseudomonas putida KT2440; C324Y/L322F)  1188 ± 122 µM
5. TA_2799 (Pseudomonas putida KT2440)  6459 ± 621 µM

In order of falling Vmax:
1. TA_2799 (Pseudomonas putida KT2440)  0.104 µmol/min/mg
2. TA_2799 (Pseudomonas putida KT2440; L322F)  0.042 µmol/min/mg
3. TA_5182 (Pseudomonas putida KT2440)  0.007 µmol/min/mg
4. TA_5182 (Pseudomonas putida KT2440; G119N)  0.003 µmol/min/mg

In order of rising kcat:
1. TA_5182 (Pseudomonas putida KT2440; G119N)  0.00245 ± 3.33e-05 s⁻¹
2. TA_5182 (Pseudomonas putida KT2440)  0.0049 ± 0.000117 s⁻¹
3. TA_2799 (Pseudomonas putida KT2440; C324Y/L322F)  0.02302 ± 0.000817 s⁻¹
4. TA_2799 (Pseudomonas putida KT2440; L322F)  0.0296 ± 0.0006 s⁻¹
5. TA_2799 (Pseudomonas putida KT2440)  0.072 ± 0.00465 s⁻¹

In order of falling kcat/Km:
1. TA_2799 (Pseudomonas putida KT2440; L322F)  27.7 M⁻¹ s⁻¹
2. TA_2799 (Pseudomonas putida KT2440)  11.1 M⁻¹ s⁻¹
3. TA_5182 (Pseudomonas putida KT2440; G119N)  7.05 M⁻¹ s⁻¹
4. TA_5182 (Pseudomonas putida KT2440)  4.48 M⁻¹ s⁻¹

These compounds were tested against T1, TA_2799 (Pseudomonas putida, UniProt Q88J50) (assay: X-ray crystal structure, […] Å). Conditions: covalent; internal aldimine with catalytic K286.
T1 construct: gene PP_2799; pET43.1b, 6xHis tag, expressed in E. coli BL21 (DE3), Ni-NTA; homodimer; catalytic K286
Assay type: binding

For Cc1ncc(COP(=O)(O)O)c(C=O)c1O [PLP], the “X-ray crystal structure, 1.76 Å” value was “covalently bound internal aldimine form of the PLP bound to the catalytic K286 residue”.

— publication PMC12226076, “Structural insights and rational design of Pseudomonasputida KT2440 omega transaminases for enhanced biotransformation of (R)-PAC to (1R, 2S)-Norephedrine” (The Journal of Biological Chemistry, 2025)
